Positions of bridges follow the written chain, without caps; N, C: chain ends. Non-standard residues stand in square brackets, D forms with d. No end group written: not given here. *: point of attachment. Acetyl(2-(4-imidazolyl)) = O=C(Cc1c[nH]cn1)*; Aib = CC(C)(N)C(=O)O
T1: human GIP receptor (human, UniProt P48546 22-466)
T1 sequence (looked up): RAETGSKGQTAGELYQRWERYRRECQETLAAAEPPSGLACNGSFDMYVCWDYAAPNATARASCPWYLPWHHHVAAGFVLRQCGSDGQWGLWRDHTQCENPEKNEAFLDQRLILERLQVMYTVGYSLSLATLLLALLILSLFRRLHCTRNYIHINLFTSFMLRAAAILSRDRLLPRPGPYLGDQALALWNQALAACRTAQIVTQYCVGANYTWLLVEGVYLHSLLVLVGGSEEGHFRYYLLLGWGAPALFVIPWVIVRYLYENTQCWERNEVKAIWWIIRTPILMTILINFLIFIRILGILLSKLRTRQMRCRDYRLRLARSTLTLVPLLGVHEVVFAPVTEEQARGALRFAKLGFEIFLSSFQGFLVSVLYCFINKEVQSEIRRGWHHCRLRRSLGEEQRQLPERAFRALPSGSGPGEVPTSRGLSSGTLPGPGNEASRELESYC

B1: triple agonist of SEQ ID NO: 17 (peptide)
peptide: {Acetyl(2-(4-imidazolyl))}-GQGTFTSDLSKQMDEERAREFIEWLLAQKPSSGAPPPSHG
modifications: not fully specified; also: ring from underlined residues, positions not shown
B2: triple agonist of SEQ ID NO: 18 (peptide)
peptide: {Acetyl(2-(4-imidazolyl))}-GQGTFTSDLSKQMDSERAREFIEWLKNTGPSSGAPPPSHG
modifications: not fully specified; also: ring from underlined residues, positions not shown
B3: triple agonist of SEQ ID NO: 19 (peptide)
peptide: {Acetyl(2-(4-imidazolyl))}-GQGTFTSDLSIQYDSEHQRDFIEWLKDTGPSSGAPPPSHG
modifications: not fully specified; also: ring from underlined residues, positions not shown
B4: triple agonist of SEQ ID NO: 20 (peptide)
peptide: {Acetyl(2-(4-imidazolyl))}-GQGTFTSDLSIQYEEEAQQDFVEWLKDTGPSSGAPPPSHG
modifications: not fully specified; also: ring from underlined residues, positions not shown
B5: triple agonist of SEQ ID NO: 21 (peptide)
peptide: Y[Aib]QGTFTSDYSKYLDECRAKEFVQWLLDHHPSSGQPPPS
modifications: bridge 16-20; not fully specified
B6: triple agonist of SEQ ID NO: 22 (peptide)
peptide: Y[Aib]QGTFTSDYSKCLDEKRAKEFVQWLLDHHPSSGQPPPS
modifications: bridge 16-20; not fully specified
B7: triple agonist of SEQ ID NO: 23 (peptide)
peptide: Y[Aib]QGTFTSDYSKYLDECRAKEFVQWLLAQKGKKNDWKHNIT
modifications: bridge 16-20; not fully specified
B8: triple agonist of SEQ ID NO: 3 (peptide)
peptide: H[Aib]QGTFTSDVSSYLLGQAAKQFIAWLVKGGGPSSGAPPPSC
modifications: not fully specified
B9: triple agonist of SEQ ID NO: 24 (peptide)
peptide: Y[Aib]QGTFTSDYSKYLDECRAKEFVQWLKNGGPSSGAPPPS
modifications: bridge 16-20
B10: triple agonist of SEQ ID NO: 25 (peptide)
peptide: H[Aib]QGTFTSDCSKYLDERAAQDFVQWLLDGGPSSGAPPPS
modifications: not fully specified
B11: triple agonist of SEQ ID NO: 26 (peptide)
peptide: H[Aib]QGTFTSDCSKYLDSRAAQDFVQWLLDGGPSSGAPPPS
modifications: not fully specified
B12: triple agonist of SEQ ID NO: 27 (peptide)
peptide: H[Aib]QGTFTSDYSKYLDERACQDFVQWLLDQGGPSSGAPPPS
modifications: not fully specified
B13: triple agonist of SEQ ID NO: 28 (peptide)
peptide: H[Aib]QGTFTSDYSKYLDEKRAQEFVCWLLAQKGKKNDWKHNIT
modifications: not fully specified
B14: triple agonist of SEQ ID NO: 29 (peptide)
peptide: H[Aib]QGTFTSDYSKYLDEKAAKEFVQWLLNTC
modifications: bridge 16-20; not fully specified
B15: triple agonist of SEQ ID NO: 30 (peptide)
peptide: H[Aib]QGTFTSDYSKYLDEKAQKEFVQWLLDTC
modifications: bridge 16-20; not fully specified
B16: triple agonist of SEQ ID NO: 31 (peptide)
peptide: H[Aib]QGTFTSDYSKYLDEKACKEFVQWLLAQ
modifications: bridge 16-20; not fully specified
B17: triple agonist of SEQ ID NO: 32 (peptide)
peptide: H[Aib]QGTFTSDYSKYLDEKACKDFVQWLLDGGPSSGAPPPS
modifications: bridge 16-20; not fully specified

Tests used:
[1] = system: relapsing/remitting multiple sclerosis mouse model; conditions: Mol Neurobiol. 2018, cited from earlier work
[2] = system: pyridoxine-induced peripheral neuropathy in non-diabetic rodents; conditions: Exp Neurol. 2007; cited from earlier work
[3] = target: T1, human GIP receptor; test: cell-based or functional assay
[4] = target: human GCG receptor (human, UniProt P47871 26-477); test: cell-based or functional assay
human GCG receptor, sequence (P47871 26-477): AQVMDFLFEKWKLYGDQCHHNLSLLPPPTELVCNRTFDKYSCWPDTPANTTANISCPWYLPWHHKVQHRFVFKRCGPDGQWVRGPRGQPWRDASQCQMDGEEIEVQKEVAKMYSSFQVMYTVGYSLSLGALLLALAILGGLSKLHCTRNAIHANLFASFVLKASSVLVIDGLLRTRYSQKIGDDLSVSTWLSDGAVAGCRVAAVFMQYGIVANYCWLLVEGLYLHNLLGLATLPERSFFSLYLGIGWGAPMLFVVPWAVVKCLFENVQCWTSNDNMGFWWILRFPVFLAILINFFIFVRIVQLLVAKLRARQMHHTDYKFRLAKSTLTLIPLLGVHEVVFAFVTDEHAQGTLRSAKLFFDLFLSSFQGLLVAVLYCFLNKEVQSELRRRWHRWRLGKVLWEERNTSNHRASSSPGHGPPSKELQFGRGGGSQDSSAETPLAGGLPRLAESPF

[5] = target: human GLP-1 receptor (human, UniProt P43220 24-463); test: cell-based or functional assay

Molecule | levels of inflammatory cytokines that increase during demyelination [1] | symptoms of multiple sclerosis ([1]; effect similar to that of fingolimod) | protection against pyridoxine-induced functional and morphological defects [2] | In vitro activity (%) compared with native peptide: vs GIP [3] | In vitro activity (%) compared with native peptide: vs Glucagon [4] | In vitro activity (%) compared with native peptide: vs GLP-1 [5]
exendin-4 | reduced the levels of inflammatory cytokines | symptom alleviating effect | partially protected | – | – | –
glucagon-like peptide-1 (HAEGTFTSDVSSYLEGQAAKEFIAWLVKGR; ends and bridges not checked; UniProt P01275 98-127, looked up) [GLP-1, a typical incretin hormone] | – | – | partially protected | – | – | –
B1 | – | – | – | < 0.1% | < 0.1% | 0.2%
B2 | – | – | – | < 0.1% | < 0.1% | < 0.1%
B3 | – | – | – | < 0.1% | < 0.1% | < 0.1%
B4 | – | – | – | < 0.1% | < 0.1% | < 0.1%
B5 | – | – | – | 22.7% | 267% | 17.8%
B6 | – | – | – | 59.7% | 140% | 20.1%
B7 | – | – | – | < 0.1% | 9.3% | 4.01%
B8 | – | – | – | < 0.1% | < 0.1% | 1.8%
B9 | – | – | – | < 0.1% | 9.3% | 41.2%
B10 | – | – | – | < 0.1% | 0.1% | 82.6%
B11 | – | – | – | < 0.1% | 0.2% | 64.5%
B12 | – | – | – | 0.9% | 0.8% | 83.1%
B13 | – | – | – | < 0.1% | 1.6% | 17.2%
B14 | – | – | – | < 0.1% | 6% | 38.5%
B15 | – | – | – | 0.8% | 0.7% | 142%
B16 | – | – | – | 2.4% | 2.2% | 135%
B17 | – | – | – | 8.8% | 1.7% | 151%

Reference: patent US20230372448A1, “THERAPEUTIC USE OF LONG-ACTING CONJUGATE OF TRIPLE AGONIST ACTING ON ALL OF GLUCAGON, GLP-1 AND GIP RECEPTORS AGAINST MULTIPLE SCLEROSIS” (HANMI PHARM. CO. ,LTD., priority 2020, published 2023)
